Measurements reported in the RNAGym collection of RNA variant scans (doi:10.1073/pnas.2313332121).

B1: TPR t1 (parent)
chain: GACCAAUCUGCCCUCAGAGCUCGAGAACAUCUUCGGAUGCAGAGGAGGCAGGCUUCGGUGGCGCGAUAGCGCCAACGUCCUCAACCUCCAAUGCAUCCCACCACAUGAUGAUGCCUGAAGAGCCUUGGUUUUUUG

Variants of: B1
Test: polymerase ribozyme fitness, log enrichment relative to wild type (log ratio); higher = more active; in vitro selection for triplet polymerase activity
In short: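 In triplicate, a single round of in vitro selection was run on each mutant library, PCR-built and transcribed, covering one subunit of a heterodimeric triplet polymerase ribozyme. Frozen incubation at −7 °C followed annealing with a biotinylated primer, partner subunit and triplets, and extended constructs were then gel-excised, streptavidin-captured and taken through RT-PCR. Fitness is the logarithm of genotype enrichment over wild-type enrichment, from inverse-variance-weighted replicate averages of Illumina-sequenced inputs and outputs. […] only genotypes with ≥10 input reads and ≥1 read per output were kept.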

Variant	polymerase ribozyme fitness (log ratio)
GACCAAUCUGCCCUCAGAGCUCGAGAACAUCUUCGUAUGCAGAGGAGGUAGGCUUCGGUGGCGUGAUAGCGCCAACGUCCUCAACCUCCAAUGCAUCCCACCACAUGAUGAUACUUGAAGAGCCUUGUUUUUUUG [G36U C49U C64U G113A C115U G128U]	-6.05
GACCAAUCUGCCCUAAGAGCUCGAGAACAUCUUCGGGUGCAGAGGAGGCAGGCUUCGGUGGCGCGAUAGCGCCAACGUGCUCAACCUCCAAUGCAUCCCACCACAUGAUGAUGCCUGAAGAGCCUUGGUUUUUUG [C15A A37G C79G]	-3.88
GACCAAUUUGCCCUCAGAGCUAGAGGAUAUCUUAGGAUGCAGAGGAGGCAGGCUUCGGUGGCUCGAUAGCGCCAACGUCCUCAACCUCCAAUGCAUCCCACCAAAUGAUGACGCCUGAAGAGCCUUGGUUUUUUA [C8U C22A A26G C28U C34A G63U C104A U112C G135A]	-2.92
GACCAAUCUGCCCUCAGAGCUCGAGAACAUCUUCGGAUGCAGAGGAGGCAGGCUUCGGUGGCGCGAUACCGCCAACGUCCUCAACCUCCAAUGCAUCCCACCACAUGAUGAUAACUGAAGAGCCAUGGUUUUAUG [G69C G113A C114A U125A U133A]	-4.08
GACCAAUCUGCCCUCAGAGCUCGAGAACAUCUUCGGACGCAGAGGAGGCAGGCUUCGGUGGCGCGAUAGCGCCAACGUCCUCAACCUCCAAUGCAUCCCACCACAUGACGAUGCCUGAAGAGCCUUGGUUUUUUG [U38C U109C]	-4.71
GACCAAUCUGCCCUCAGAGCUCGAGAACAUCUUCGGAUGCAGAGGAGGCAGGCUUCCGUGGCGCGAUAGCGCCAACGUCCUCAACCACCAAUGCAUCCCACCACAUGAUGAUGCCUGAAGAGCCUUGGUUUUUUG [G57C U87A]	-1.1
GACCAAUCUGCCCUCAGAGCUCGAGAACAUCUUCGGAUGCAGAGGAGGCAGGCUUCGGUGGUGCGAUAGCGCCAACGUCCUCAAACUCCAAUGCAUCCCACCACAGGAUGAUGCCUGAAGAGGCUUGGUUUUUUG [C62U C85A U106G C123G]	-1.11
GACCAAUCUGCCCUCAGAGCUCGAGAACAUCUUCGGUUGCAGAGGAGGCAGGCUUCGGUGGCGCGAUAGCGCCAACGUCCUCAACAUCCAAUGCAUCCCACCACAUGAUGAUGCCUGAAGAGCCUUGGUUUUUUG [A37U C86A]	-0.797
GACCAAUCUGCCCUCAGAGCUCGAGAACAUCUUCGGAUGCAGAGGAGGCAGGCUUCGGUGGCGCGAUAACGCCAACGUCCUCAACCUCCAAUGCAUCCCACUACAUGAUGAUGCCUGAAGAGCCUUGGUUUUUUG [G69A C102U]	-4.72
GACCAAUCUGCCCUCAGAGCUCGAGAACAUCUUCGGAUGCAGAGGAGGCAGGCUUCGGUGGCGCGAUAGCGCCAACGUCCUCAACCUCCAAUGCAUCCCACCACAUGAAGAUGUCUGCAGAGCCUUGGUUUUUUG [U109A C114U A118C]	-5.26
GACCAAUCUGCCCUCAGAGCUCGAGAACAUCUUCGGAUGCAGAGGAGGCAGGGUUCGGGGGCGCGAUAGCGCCAACGUCCUCAACCUCCAAUGGAUCCCACCACAUGAUGAUGCCUGAAGAGCCUUGGUUUUUUG [C53G U59G C94G]	-0.648
GACCAAUAUGCCCUCAGAGCUCGAGAACAUCUUCGGAUGCAGAGGAGGCAGGCUUCGGUGCCGCGAUAGCGCCAACGUCCUCAACCUCCAAUGCAUCCCACCACAUGAUGAUGCCUGAGGAGCCUGGGUUUUUUG [C8A G61C A119G U126G]	-2.44
GACCAAUCUGCCCUCAGAGCUCGAGAUCAUCUUCGGAUGCAGAGGAGGCAGGCUUCGGUGGCGCGAUAGCGCCAACGUCCUCAACCUCCAAUGCAUCCCACCACAUGAUGAUGCCUGAAGAGGCUUGGUUUUUUG [A27U C123G]	-0.165
GACCAAUCUGCCCUCAGAGCUCGAGAACAUCUUCGGAUGCAGAGGAGGCAGGAUUCGGUGGCGCGAUAGCGCCAACGUCCUCAAACUCCAAUGCAUCCCACCACAUGAUGAUGCCUAAAGAGCCGUGGUUUUUUG [C53A C85A G117A U125G]	-3.17
GACCAGUUUGCCCUCAGAGCUCGAGAACAUCUUCGGAUGCAGAGGAGGCAGGCUUCGGUGGCGCGAUAGCGCCAACGUCCUCAACCUCCAAUGCAUCGCACCACAUGAUGAUGCCUGAAGAGCCUUGGUUUUUUG [A6G C8U C98G]	-4.61
GACCAAUCUGCCCUCAGAGCUCGAGAACAUCUUCGGAUGCAGAGGAGGCAGGCUUCGGUGACGCGAUAACGCCAACGUCCUCAACCUCCAAUGCAUCCCACCACAUGAUGAUGCCUGAAGAGCCUUGGUUUUUUG [G61A G69A]	-4.21
GACCAAUCUGCCCUCAGAGCUCGAGAACAUCUUCGGAUGCAGAGGAGGCAGGCUUCGGUGGCGCGAUAGCGCCAACGUCCUCAACCUCCAAUGCAUCCCACCACAUGAUGAUACCUGAAGAGACUUGGUUUUUUG [G113A C123A]	-1.45
GACCAAUCUGCCCUCAGAGCUCGAGAACAUCUUCGGAUGCAGAGGAGGCAGGCUUCGGUGGAGCGAUAGCGCCAACGUCCUCAACCUCCAAUGCAUCCCACCACAUGAUGAUGCCUGAAGAGCCUUGGUGUUUUG [C62A U130G]	-1.46
GAGCAAUCUGCCCUCAGAGCUCGAGAACAUCUUCGGAUGCAGAGGAGGCAGGCUUCGGUGGUGCGAUAGCGCCAACGUCCUCAACCUCCAAUGCAUCCCACCACAUGAUGAUGCCUGAAGAGCCUUGGUUUUUUG [C3G C62U]	-1.58
GACCAAUCUGCCCUCAGACCUCGAGAACAUCUUCGGAUGCAGAGGAGGCAGGCUUCGGUGGCGCGAUAGUGCCAACGUCCUCAACCUCCAAUGCAUCCCACCACAUGAUGAAGCCUGAAAAGCCUUGGUCUUUUG [G19C C70U U112A G120A U130C]	-2.23
GACCAAUCUGCACUCAGAGCUCGAGAACUUCUUCGGAUGCAGAGGAGGUAGGCUUCGGUGGCGCGAUAGCGCCGACGUCCUCAACCUCCAAUGCAUCCCACCACAUGAUGAUGCCUGAAGAGACUUGGUUAUUUG [C12A A29U C49U A74G C123A U131A]	-1.45

Variant	polymerase ribozyme fitness (log ratio)
GACCAAUCUGCCCUCAGAGCUCGAGAACAUCUUCGGAUGCAGAGGAGGCAGGCUUCGGUGGCGCGAUAGCGCCAACGUCCUCAACCUCCAAGGCAUCCCAACACAUGAUGAUGCCUGAAGAGCCUUGGUUUUUUG [U92G C101A]	-4.03
GACCAAUCUGCCCUCAGAGCUCGAGAACAUCUUCGGAUGCAGAGUAGGCAGACUUCGGUGGUGCGAUAGCGCCAACGUCCUCAACCUCCAAUGCAGCCCACCACAUGAUGAUGCCUGAAGAGCCUUGGUUUUUUG [G45U G52A C62U U96G]	-2.4
GACCAAUCUGCCCUCAGAGCUCGAGAACAUCUUCGAAUGCAGAGGAGGCAGGCUUCGGUGGCGCGAUAGCGCCAACGUCCACAACCUCCAAUGCAUCCCACCACAUGAUGAUGCCUGAAGAGCCAUGGUUUUUUG [G36A U81A U125A]	-2.6
GACCAAUCUGCCCUCAGAGCUCGAGAACAUCUUCGGAUGCAGAGGAGGCAAGCUUCGGUGGCGCCAUAGCGCCAACGUCCUCAACCUCCAAUGCAUCCCACCACAUGAUGAUGGCUGAAGAGCCUUGGUUUUUUG [G51A G65C C114G]	-6.09
GACCAAUCUCCCCUCAGAGCUCGAGAACAUCUUCGGAUGCAAAGGAGGCAGGCUUCGGUGGCUCGAUAGCGCCAACGUCCUCAACCUCCACUGCAUCCCACCACAUGAUGAUACCUGAAGAUCCUUGGUUUUUUG [G10C G42A G63U A91C G113A G122U]	-4.47
GACCAAUCUGCCCUCAGAGCUCGAGAACAUCUUCGGAUGCAGAGGAGGCAGGCUUCGGUGGCGCGAUAGCGCCAACGUCCUCCACCUCCAAUCCAUCCCACCACAUGAUGAUGCCUGAAGAGCCUUGGUUUUUUG [A83C G93C]	-0.701
GACCAAUCUGCCCUCAGAGCUCGAGAACAUCUUCGGAUGCAGAGAAGGCAGGCUUCGGUGGCGCGAUAGCGCUAACGUCCUCAACCUACAAUGCAUCCCACCACAUGAUGACGCCUGAAGAUCCUUGGUUUUUUG [G45A C73U C88A U112C G122U]	0.105
GACCAAUCUGCCCUCAGAGCUAGAGAACAUCUUCGGAUGGAGAGGAGGCAGGCUUCGCUAGCGCGAUAGCGCCAACGUCCUCAACCUCCAAUGCAUCCCACCACAUGAUGAUGCCUGAAGAGCCUUGGUUUUUUG [C22A C40G G58C G60A]	-4.83
GACCAAUUUGCCCUCAGAGCUCGAGAACAUCUUCGGAUGCAGAGGAGGCAGGCUUCGGUGGCGCGAUAGCGCCAACGUCCUCAACCUCCAAUGCAUCCCCCCACAUGAUGAUGCCUAAAGAGCCUUGGUUUUUUG [C8U A100C G117A]	-1.87
GACCAAUCUGCUCUCAGAGCUCGAGAACAUCUUCGGUUGCAGAGGAGGCAGGCUUCGGUGGCACGAUAGCGCCAACGUCCUCAAUCUCCAAUCCAUCCCACCACAUGAUGAUGCCUGAAAAGCCUUGGUUUUUUG [C12U A37U G63A C85U G93C G120A]	-0.961
GACCAAUCUGCCCUCAGAGCUCGAGAACAUCUUCGGAUGCAGAGGAGGCAGGCUUCGGUGGCGCGAUAGCGCCAACGUCCUGAACCUUCAAUGCAUCCCACCCCAUGAUGAUGCCUCAAGAGCCUUGGUUUUUUG [C82G C88U A103C G117C]	-5.02
GAGCAAUCUGCCCUCAGAGCUCGAGAACAUCUUCGGAUGCAGAGGAGGCAGGCUUCGGUGGCGCGAUAGCGCCAACGUCCUCAACCUCCAAUACAUCCCACCACAUGAUGAUGCCUGAAGAGCCUUGGUUUUUUG [C3G G93A]	-2.07
GACCAAUCUCCCCUCAGAGCUCGAGAACAUCUUCGGAUGCAGAGGAGGCAGGCUUCGGUGGCGCGAUAGCGCCAACGUCCUCAACCUCGAAUGCAUCCCACCACAUGAUGAUGCCUGAAGCGCCUUGGUUUUUUG [G10C C89G A121C]	0.737
GACCAAUCUGCCCUCAGGGCUAGAGAACAUCUUCGGAUGCACAGGAGGCAGGCGUCGGUGGCCCGAUAGCGCCAACGUCCUCAACCUCCAAUGCAUCCCACCACAUGAUGAGGCCUGAAGAGCCUUGGUUUUUUG [A18G C22A G42C U54G G63C U112G]	-5.39
GACCAAUGUGCCCUCAGAGCUCGAGAACAUCUUCGGAUGCAGAGGAGUCAGGCUUCGGUGGCGCGAUAGCGCCAACGUCCUCAACCUCCAAUGCAUCCCACCACAUGAUGAUACCUGAAGAGCCUCGGUUUUUUG [C8G G48U G113A U126C]	-0.687
GACCAAUCUGCCCUCAGAGCUCGAGAACAUCUUCGGAUGCAGAGGAGGCAGGCUUGGGUGGUGUGAUAGCGCCAACGUCCUAAACCUCUAAUGCAUCCCACCACAUGAUGAUGCCUGAAGAGACUUGGUUUUUUG [C56G C62U C64U C82A C89U C123A]	-3.52
GACCAAACUGCACUCAGAGCUCGAGAAGAUCUUCGGAUGCAGAGGAGGCAGGCUUCGAUGGCGCGAUAGCGCCAACGUCCUCAACCGCCAAUGCAUCCCACCACAUGAUGAUGCCUGAAUAGCCUUGGUUUUUUG [U7A C12A C28G G58A U87G G120U]	-1.72
GACCAAUCUGCCCUCAGAGCUCGAGAGCAUCUUCGGAUGCAGAGGAGGCAGGCUUCGGUGGCGCGAUAGCGCCAACGUCCUCAACCUCCAAUGCAUCCCACCACAUGAUGAUGCCUGAAGAGCCUUGGCUUUUUG [A27G U129C]	-3.02
GACCAAUCUGCCCUCAGAGCUCGAGAACAUCUUCGGAUGCAGAGGAGGCAGGCUUCGGUGGCGCGAUAGCGUCAACUUCCUCAACCUCCAAUGCAUCCCACCACAUGAUGAUGCCUGAAGAGCCUUGGUUUUUUG [C72U G77U]	-0.309
GACCAAUCUGCCCUCAGAGCUCGAGAACAUCUUCGGAUGCAGAGUAUGCAGGCUUCGGUAGCGCGAUAGCGCCAACGUCCUCAACCUCCAAUGCAUCGCACCACAUGAUGAUGCCUGAAGAGCCUUGGUUUUUUG [G45U G47U G60A C98G]	-7.59
GACCAAUCUGACCUCUGAGCUCGUGAACAUGUUGGGCUGCAGAGGAGGCAGGCUUCGGUGGCGCGAUAGCGCAAACGUCCUCAACCUCCAAUGCAUCCCACCACAUGAUGAUGCUUCAAGAGCCUUGGUUUUUUG [C11A A16U A24U C31G C34G A37C C73A C115U G117C]	-7.35
